Source: US20170305975A1

Key:
[1] = target: amyloid-β 1-42 fibers (fAβ42) (human) (UniProt P05067); experiment: Aβ binding competition assay; ArgC-treated M13 as competitor of Alexa-488 M13
[2] = target: amyloid-β 1-42 fibers (fAβ42) (human) (UniProt P05067); experiment: Aβ binding competition assay; ArgC-treated M13 as competitor of Alexa-488 M13; fifth bar, label printed [5 FOLD] (the text speaks of 15 fold)

Chain of amyloid-β 1-42 fibers (fAβ42) (human) (P05067 672-713 limits assumed): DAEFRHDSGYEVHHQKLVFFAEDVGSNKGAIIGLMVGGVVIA

M13Δg3p (M13 phage with g3p removed by ArgC protease)
ALEXA LABELED 488 PELLETED [1]: 86.7 | ALEXA LABELED 488 PELLETED [2]: 85.9
